Biological target: poly-L-proline (PLP) coupled to Sepharose 4B
Assay: affinity chromatography on poly-L-proline Sepharose

Q: “GST-δLdPfn (LdPfn with amino acids 110 to 128 deleted, N-terminal GST tag) (natural protein)” was tested. Which reduction of binding to PLP relative to GST-LdPfn did it give?
A: 30%
